Test [1] concerns the target T1, biotinylated PD1-ECD-AviHis (human, UniProt Q15116 25-170, biotinylated (Avi tag)).
T1 construct: extracellular domain; also called huPD1; hu PD1; not shown: Avi and His tags
As to the kind of experiment: ELISA on biotinylated PD1-ECD-AviHis. On the technique in general: An ELISA detects its analyte on a solid surface through an enzyme-linked reagent.

Test [2] deals with T1, biotinylated PD1-ECD-AviHis. As to the kind of experiment: ELISA, biotinylated PD1-ECD-AviHis on streptavidin plates.
Protocol: After washing (3×90 μl/well with PBST-buffer) 25 μl anti PD1 antibody samples were added in increasing concentrations and incubated 1h at RT. After washing (3×90 μl/well with PBST-buffer) 25 μl/well goat-anti-human H+L-POD (JIR, JIR109-036-098) was added in 1:5000 dilution and incubated at RT for 1 h on a shaker.
The target of test [3] is T2, biotinylated Tim3-ECD-AviHis (human, UniProt Q8TDQ0 22-202, biotinylated (Avi tag)).
T2 construct: extracellular domain; also called huTIM3; hu Tim3; not shown: Avi and His tags
As to the kind of experiment: ELISA, biotinylated Tim3-ECD-AviHis on streptavidin plates.

The target in a further test is T3, human PD1-ECD (human, UniProt Q15116 25-170).
T3 construct: extracellular domain; Analyte of the Biacore assay; also called hu PD1-ECD
As to the kind of experiment: SPR (Biacore T200), antibody captured via anti-human Fc IgG, human PD1-ECD in solution, 1:1 Langmuir.

Test [4] concerns the target T4, human Tim3-ECD (human, UniProt Q8TDQ0 22-202).
T4 construct: extracellular domain; Analyte of the Biacore assay; also called hu Tim3-ECD
As to the kind of experiment: SPR (Biacore T200), antibody captured via anti-human Fab IgG, human Tim3-ECD in solution, 1:1 Langmuir. In general terms: SPR reads the build-up and loss of mass on a sensor chip optically.
Protocol: (§1) The sample and running buffer was HBS-EP+ (0.01 M HEPES, 0.15 M NaCl, 3 mM EDTA, 0.05% v/v Surfactant P20, pH 7.4). Flow cell temperature was set to 25° C. and sample compartment temperature to 12° C. The system was primed with running buffer.
(§2) Different samples were injected for 30 seconds with a concentration of 10 nM and bound consecutively to the flow cells 2, 3 and 4. […] Finally the double referenced data was fitted to a 1:1 langmuir interaction model with the Biacore™ T200 Evaluation Software.

Test [5] has as its target T4, human Tim3-ECD. As to the kind of experiment: SPR (Biacore T200), antibody captured via anti-human Fab IgG, human Tim3-ECD in solution, 1:1 Langmuir; 2 + 2 bispecific format, Tim3-arm.
Protocol: as §1, §2
Test [6] has as its target T2, biotinylated Tim3-ECD-AviHis. In words: ELISA on biotinylated Tim3-ECD-AviHis.
In a further test the target is T5, human FAP (human, UniProt Q12884 26-760).
T5 construct: also called hFAP
In words: SPR (Biacore), antibody captured via anti-human IgG Fc, 5 ug/ml human FAP injected alone for 180 s.

In general, EC50 refers to the concentration giving half of the maximal effect. The low end stands for a more potent agent, the high end for a less potent agent. Usually Kd stands for the equilibrium constant for the complex coming apart.

Numbering of substitutions follows the chain as printed.

T5 sequence (Q12884 26-760 limits assumed): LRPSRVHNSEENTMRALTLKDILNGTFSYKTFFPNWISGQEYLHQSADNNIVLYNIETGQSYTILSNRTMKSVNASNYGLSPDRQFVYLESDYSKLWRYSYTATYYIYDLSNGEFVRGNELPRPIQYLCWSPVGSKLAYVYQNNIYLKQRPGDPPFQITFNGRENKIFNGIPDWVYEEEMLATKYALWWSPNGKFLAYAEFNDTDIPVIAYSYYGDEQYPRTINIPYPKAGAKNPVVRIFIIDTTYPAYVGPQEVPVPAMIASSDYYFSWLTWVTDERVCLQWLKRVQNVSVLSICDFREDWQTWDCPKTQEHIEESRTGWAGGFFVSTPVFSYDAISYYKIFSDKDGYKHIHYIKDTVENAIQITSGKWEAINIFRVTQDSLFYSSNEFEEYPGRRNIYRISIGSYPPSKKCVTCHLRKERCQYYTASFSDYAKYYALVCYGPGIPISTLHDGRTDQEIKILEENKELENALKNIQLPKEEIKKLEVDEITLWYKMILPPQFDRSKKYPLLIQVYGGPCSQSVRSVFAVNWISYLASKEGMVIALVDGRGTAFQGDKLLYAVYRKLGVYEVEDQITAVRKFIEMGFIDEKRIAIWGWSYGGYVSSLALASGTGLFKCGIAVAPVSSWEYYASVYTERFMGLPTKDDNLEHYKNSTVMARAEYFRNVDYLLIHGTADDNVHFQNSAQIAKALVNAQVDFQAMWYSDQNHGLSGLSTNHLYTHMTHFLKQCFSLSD
Description for human FAP: Therefore a <Fc> capturing IgG is immobilized on the chip surface and the different DR5TAA CrossMAbs is captured. In the experiment the targets DR5 and FAP were either added individually or simultaneously to the captured CrossMAb.
Protocol for human PD1-ECD: Different samples were injected for 15 seconds with a concentration of 10 nM and consecutively bound to the flow cells 2, 3 and 4. […] Finally the double referenced data was fitted to a 1:1 langmuir interaction model with the Biacore™ T200 Evaluation Software.

B1: Chimeric TIM3-0028 (antibody, V domains shown)
VH: EVQLQQSVAELVRPGASVKLSCTASGFNIKTTYMHWVKQRPEQGLEWIGRIDPADDNTKYAPKFQGKATITADTSSNTAYLQLSSLTSEDAAIYYCVRDFGYVAWFAYWGQGTLVTFSA
VL: NIVMTPTPKFLPVSSGDRVTMTCRASQSVDNYVAWYQQKPGQSPKLLIYYASNRYIGVPDRFTGSGSGTDFTFTISSVQVEDLAVYFCQQHYSSPYTFGSGTKLEIK
notes: Bivalent IgG; also called TIM3 IgG (bivalent); copies: 2 + 2
With B1, the binding result in test [1] is “no binding”.

B2: 2 + 2 PD1TIM3_0359: chimeric PD1-0103/Tim3-0018 (bispecific antibody, human IgG1, kappa, L234A L235A)
heavy: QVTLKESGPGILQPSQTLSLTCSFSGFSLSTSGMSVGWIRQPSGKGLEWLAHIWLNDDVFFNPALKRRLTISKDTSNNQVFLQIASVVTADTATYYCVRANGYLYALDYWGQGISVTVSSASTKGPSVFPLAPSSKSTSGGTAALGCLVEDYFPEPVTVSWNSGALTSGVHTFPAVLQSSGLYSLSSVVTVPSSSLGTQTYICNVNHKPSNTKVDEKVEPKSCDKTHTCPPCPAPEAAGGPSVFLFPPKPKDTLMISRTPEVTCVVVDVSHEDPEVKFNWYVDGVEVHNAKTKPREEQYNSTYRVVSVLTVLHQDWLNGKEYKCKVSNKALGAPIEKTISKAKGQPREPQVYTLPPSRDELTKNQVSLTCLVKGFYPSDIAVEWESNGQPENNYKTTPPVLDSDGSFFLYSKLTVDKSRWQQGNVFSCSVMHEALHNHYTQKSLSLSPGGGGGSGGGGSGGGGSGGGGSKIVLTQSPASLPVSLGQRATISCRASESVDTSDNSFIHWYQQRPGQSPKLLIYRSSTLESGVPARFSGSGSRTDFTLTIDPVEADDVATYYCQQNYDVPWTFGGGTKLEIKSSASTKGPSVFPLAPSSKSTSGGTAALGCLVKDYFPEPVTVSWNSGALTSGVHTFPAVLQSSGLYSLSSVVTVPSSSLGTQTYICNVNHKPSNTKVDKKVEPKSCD
light 1: QIVLTQSPAIMSASPGQKVTITCSASSSVNYTQWYQQKLGSSPKLWIYDAFKLAPGVPARFSGSGTGTSYSLTISSMEAEDAASYFCHQWSSYPWTFGGGTKLEIKRTVAAPSVFIFPPSDRKLKSGTASVVCLLNNFYPREAKVQWKVDNALQSGNSQESVTEQDSKDSTYSLSSTLTLSKADYEKHKVYACEVTHQGLSSPVTKSFNRGEC
light 2: EVILVESGGGLVKPGGSLKLSCAASGFSFSSYTMSWVRQTPEKRLDWVATISGGGRDIYYPDSVKGRFTISRDNAKNTLYLEMSSLMSEDTALYYCVLLTGRVYFALDSWGQGTSVTVSSASVAAPSVFIFPPSDEQLKSGTASVVCLLNNFYPREAKVQWKVDNALQSGNSQESVTEQDSKDSTYSLSSTLTLSKADYEKHKVYACEVTHQGLSSPVTKSFNRGEC
notes: Tetravalent 2+2 CrossMAb VH-VL with charged substitutions in the CH1/CL interfaces; also called PD1TIM3-0359 (2 + 2)
For the molecule B2, the EC50 in test [2] was 90 pM; in test [3] it was 110 pM. In addition, the dissociation constant Kd with human PD1-ECD turned out to be 1900 pM; in the test with human Tim3-ECD [4] it was 300 pM.

B3: 2 + 2 PD1TIM3_0358: chimeric PD1-0103/Tim3-0028 (bispecific antibody, human IgG1, kappa, L234A L235A)
heavy: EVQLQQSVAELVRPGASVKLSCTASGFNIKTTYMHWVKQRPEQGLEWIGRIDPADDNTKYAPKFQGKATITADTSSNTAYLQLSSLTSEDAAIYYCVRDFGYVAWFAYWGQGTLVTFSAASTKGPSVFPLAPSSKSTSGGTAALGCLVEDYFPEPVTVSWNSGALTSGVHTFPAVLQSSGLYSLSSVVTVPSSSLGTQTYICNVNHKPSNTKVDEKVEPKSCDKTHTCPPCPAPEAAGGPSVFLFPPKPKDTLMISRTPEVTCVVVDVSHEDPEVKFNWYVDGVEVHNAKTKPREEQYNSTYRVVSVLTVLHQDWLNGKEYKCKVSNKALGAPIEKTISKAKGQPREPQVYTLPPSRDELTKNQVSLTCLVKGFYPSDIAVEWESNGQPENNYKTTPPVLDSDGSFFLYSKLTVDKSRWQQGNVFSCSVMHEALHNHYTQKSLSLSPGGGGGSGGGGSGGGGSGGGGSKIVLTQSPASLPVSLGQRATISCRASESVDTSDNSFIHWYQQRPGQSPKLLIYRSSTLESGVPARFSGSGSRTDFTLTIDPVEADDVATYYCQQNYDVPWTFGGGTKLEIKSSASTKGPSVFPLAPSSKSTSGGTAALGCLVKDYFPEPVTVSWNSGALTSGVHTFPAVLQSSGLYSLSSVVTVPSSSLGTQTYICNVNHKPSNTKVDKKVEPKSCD
light 1: NIVMTPTPKFLPVSSGDRVTMTCRASQSVDNYVAWYQQKPGQSPKLLIYYASNRYIGVPDRFTGSGSGTDFTFTISSVQVEDLAVYFCQQHYSSPYTFGSGTKLEIKRTVAAPSVFIFPPSDRKLKSGTASVVCLLNNFYPREAKVQWKVDNALQSGNSQESVTEQDSKDSTYSLSSTLTLSKADYEKHKVYACEVTHQG
light 2: B2 light 2
notes: Tetravalent 2+2 CrossMAb VH-VL with charged substitutions in the CH1/CL interfaces; also called PD1TIM3-0358 (2 + 2)
Regarding B3, the EC50 in test [2] stood at 80 pM; in test [3], 190 pM. In addition, in the test with human Tim3-ECD [5], the Kd amounted to 2200 pM.

B4: Chimeric PD1-0103 (antibody, V domains shown)
VH: EVILVESGGGLVKPGGSLKLSCAASGFSFSSYTMSWVRQTPEKRLDWVATISGGGRDIYYPDSVKGRFTISRDNAKNTLYLEMSSLMSEDTALYYCVLLTGRVYFALDSWGQGTSVTVSS
VL: KIVLTQSPASLPVSLGQRATISCRASESVDTSDNSFIHWYQQRPGQSPKLLIYRSSTLESGVPARFSGSGSRTDFTLTIDPVEADDVATYYCQQNYDVPWTFGGGTKLEIK
notes: Bivalent IgG; also called PD1 IgG (bivalent); copies: 2 + 2
Turning to B4, the binding result in test [6] is reported as “no binding”. Also, the midpoint of the response in test [2], the EC50, lay at 120 pM.

B5: Chimeric TIM3-0018 (antibody, V domains shown)
VH: QVTLKESGPGILQPSQTLSLTCSFSGFSLSTSGMSVGWIRQPSGKGLEWLAHIWLNDDVFFNPALKRRLTISKDTSNNQVFLQIASVVTADTATYYCVRANGYLYALDYWGQGISVTVSS
VL: QIVLTQSPAIMSASPGQKVTITCSASSSVNYTQWYQQKLGSSPKLWIYDAFKLAPGVPARFSGSGTGTSYSLTISSMEAEDAASYFCHQWSSYPWTFGGGTKLEIK
notes: as for B1
Consider B5, for which the binding result in test [1] is on record as “no binding”. In test [3], this molecule yielded an EC50 of 150 pM.

B6: DR5TAA-0077 (bispecific antibody, human IgG1, kappa)
light 1: not shown
heavy: not shown
light 2: EIVLTQSPGTLSLSPGERATLSCRASQSVSRSYLAWYQQKPGQAPRLLIIGASTRATGIPDRFSGSGSGTDFTLTISRLEPEDFAVYYCQQGQVIPPTFGQGTKVEIKRTVAAPSVFIFPPSDEQLKSGTASVVCLLNNFYPREAKVQWKVDNALQSGNSQESVTEQDSKDSTYSLSSTLTLSKADYEKHKVYACEVTHQGLSSPVTKSFNRGEC
notes: Tetravalent 2+2: DR5 core antibody (VH/VL crossover on DR5) with two FAP Fabs fused to the HC C-termini; wild type CH1/CL interface; also called DR5TAA-0077 (control)
In the case of B6, in the test with human FAP, the “FAP signal [RU max]” value was determined as 41.9 RU.

B7: DR5TAA-0081 (bispecific antibody, human IgG1, kappa, L234A L235A)
light 1: EVQLLESGGGLVQPGGSLRLSCAASGFTFSSHAMSWVRQAPGKGLEWVSAIWASGEQYYADSVKGRFTISRDNSKNTLYLQMNSLRAEDTAVYYCAKGWLGNFDYWGQGTLVTVSSASVAAPSVFIFPPSDEQLKSGTASVVCLLNNFYPREAKVQWKVDNALQSGNSQESVTEQDSKDSTYSLSSTLTLSKADYEKHKVYACEVTHQGLSSPVTKSFNRGEC
heavy: not shown
light 2: B6 light 2 with R31S, I50Y, T54S, Q93T, V94T, I95H, P97I
notes: Tetravalent 2+2: DR5 core antibody with two VH/VL-crossed FAP Fabs fused to the HC C-termini; wild type CH1/CL interface; the set of three chains is the same; also called DR5TAA-0081 (control)
In the case of B7, the “FAP signal [RU max]” value with human FAP was 7.2 RU.

B8: DR5TAA-0078 (bispecific antibody)
light 1: EIVLTQSPGTLSLSPGERATLSCRASQSVSSSYLAWYQQKPGQAPRLLIYGASSRATGIPDRFSGSGSGTDFTLTISRLEPEDFAVYYCQQGTTHPITFGQGTKVEIKSSASTKGPSVFPLAPSSKSTSGGTAALGCLVKDYFPEPVTVSWNSGALTSGVHTFPAVLQSSGLYSLSSVVTVPSSSLGTQTYICNVNHKPSNTKVDKKVEPKSCD
heavy: not shown
light 2: B6 light 2
notes: Tetravalent 2+2: DR5 core antibody with CH1-CL crossover on DR5 (instead of VH/VL), two FAP Fabs fused to the HC C-termini; wild type CH1/CL interface; also called DR5TAA-0078 (control)
Turning to B8, the “FAP signal [RU max]” value in the test with human FAP was found to be 38.4 RU.

B9: DR5TAA-0083 (bispecific antibody, human IgG1, kappa, L234A L235A)
light 1: not shown
heavy: not shown
light 2: B6 light 2 with E124R, Q125K
notes: Tetravalent 2+2, VH/VL crossover on DR5
On to B9, for which the “FAP signal [RU max]” value in the test with human FAP is 18.5 RU.

B10: DR5TAA-0082 (bispecific antibody, human IgG1, kappa, L234A L235A)
light 1: B6 light 2 with R31S, I50Y, T54S, Q93T, V94T, I95H, P97I, E124R, Q125K
heavy: not shown
light 2: B7 light 1 with Q133E
notes: Tetravalent 2+2, VH/VL crossover on FAP
Take B10: the “FAP signal [RU max]” value with human FAP is 7.4 RU.
